Measurements taken from patent US11634470B2, “Integrin binding peptides and uses thereof” (Universiteit Twente, priority 2015, dated 2023).
Primed or numbered codes have the meaning given here. Where no end group is shown, it is not given here. PEG(6) = PEG(6) linker

Key:
[1] = test system: human primary pancreatic stellate cells (PSCs); assay: TGF-β1 activation of pancreatic stellate cells; type: cell-based; settings: TGFβ1-activated PSCs, immunostaining, 20 μM
Method: Human primary pancreatic stellate cells (PSCs) were obtained from ScienCell (Carlsbad, Calif.) and were cultured in specified medium provided by the manufacturer, supplemented with penicillin/streptomycin. Cells were used less than the passage 9 and seeded on a Poly-L-Lysine-coated plate.
PSCs were seeded into a 12-well plate (6×10^4 cells/well, for gene expression) or 24-well plate (for staining) in complete medium. After 24 hours, cells were starved in serum-free medium and then after 24 hours, they were added with TGF-β1 (5 ng/ml) with/without the peptide.
After 24 hours of incubation, cells were lysed with the lysis buffer and total RNA was isolated using the GenElute™ Mammalian Total RNA Miniprep Kit. The RNA amount was measured by a NanoDrop® ND-1000 Spectrophotometer (Wilmington, Del.). Subsequently, cDNA was synthesized with iScript™ cDNA Synthesis Kit (BioRad, Veenendaal, The Netherlands). 10 ng cDNA was used for each PCR reaction. The real-time qPCR primers for human αSMA and RPS18 were purchased from Sigma (The Netherlands). Gene expression levels were normalized to the expression of the house-keeping gene RPS18s.
For immunostaining, the cells were washed and fixed with acetone-methanol and processed for immunocytochemical staining.
For immunocytostaining, cells were fixed with acetone-methanol (1:1) at −20° C. for 30 minutes and then dried and rehydrated for 10 minutes. […]

[2] = test system: human skin fibroblasts BJhtert; assay: Scratch (wound) migration of human skin fibroblasts; type: cell-based; settings: after 24 hours
Method: FIG. 15: Effect of peptides on migration of human fibroblasts. Human skin fibroblasts BJhtert were grown to full confluency and a scratch (wound) was made and effects of peptides were determined on the wound closure (migration of fibroblasts) after 24 hours. […] (1. SEQ ID NO:8, 2. SEQ ID NO: 11, 3. SEQ ID NO:62, 4. SEQ ID NO:63, 5. SEQ ID NO: 64, 6. SEQ ID NO:76, and 7. SEQ ID NO:68.)

α5β1 [3] = molecular target: T1, α5β1 (Homo sapiens, UniProt P08648); assay: ITGA5 peptide selection, overlapping fibronectin peptides displayed on membrane; type: binding; design: purchased R&D systems; settings: peptides attached by C-terminal on membrane, 5 μg/ml α5β1
Method: Peptides were attached to their c-terminal site using stable linker. […] The peptide-displaying […] membrane was soaked in methanol for 1 minute and rinsed in Tris-buffered saline (TBS) and washed 3 times. Then, the membrane was blocked with 3% BSA in 0.05% TWEEN®-20 containing TBS (TBST) for 3 hours at room temperature. Then, the membrane was washed for 10 minutes with TBST and incubated with 5 μg/ml α5β1 human recombinant protein (R&D systems) in 3% BSA in TBST for 1 hour at room temperature and then overnight at 4° C. Subsequently, the membrane was washed 3 times with TBST. Thereafter, the bound receptor to the membrane was transferred to the PVDF membrane. To achieve this, first, the PVDF membrane was soaked in methanol for 1 minute and then blocked with 5% skimmed fat milk for 2 hours. Then, the membrane was incubated with primary anti-alpha5 integrin antibody (Sigma-Aldrich) for overnight in 5% skimmed milk. The membrane was washed 3 times with TBST and then incubated with anti-rabbit-HRP secondary antibody (Dako), washed and developed with chemiluminescence detection kit.

α5β1 [4] = molecular target: T1, α5β1; assay: Peptide binding study on the coated receptor; settings: for binding to the coated α5β1 receptor: PEG(6)-Fluorescein labeled peptide
Method: The purified human recombinant α5β1 or α11β1 receptors (5 μg/ml in PBS) were coated onto 96-well ELISA plates (White Maxisorb-Nunc) by incubating overnight at 4° C. Then, the wells were blocked with blocking buffer (5% (w/v) BSA, 150 mM Nacl, 25 mM Tris) for 2 hours at room temperature. Then, the wells were washed three times with 200 μl of washing buffer (150 mM Nacl, 25 mM Tris-base, 0.005% TWEEN® 20, 0.5% BSA). Thereafter, the peptides conjugated with PEG(6)-FITC were diluted to different concentrations in washing buffer. For the competitive studies, the wells were co-incubated with 10-fold higher amount of unlabeled peptides. The plates were incubated at 37° C. for 60 minutes. Then, the wells were washed three times with washing buffer and subsequently, the plates were read for the fluorescein signal Ex/Em 485 nm/520 nm using a fluorescent plate reader (Perkin Elmer).

[5] = test system: LX2 hepatic stellate cells; assay: Cell binding experiment, fluorescence microscopy; type: cell-based, human; settings: FITC-labeled peptides 20 μM, 2 hours, room temperature
Method: Human hepatic stellate cells (LX2, 15,000 cells/well) were cultured overnight in permanox Lab-Tek 8-well chamber slides (Nunc). After overnight incubation, cells were washed 3× with 0.5% BSA containing medium and then FITC-labeled peptides (20 μM) was added and incubated at room temperature for 2 hours with intermittent shaking. The cells were then washed 3× with 0.5% BSA containing medium and 2×PBS. Thereafter, cells were fixed with 4% paraformaldehyde (prepared in 1×PBS) for 20 minutes followed by 3 times washing with 1×PBS. Cells were then mounted with mounting medium with DAPI (vector labs) and visualized under the fluorescence microscope (Nikon E600). For phalloidin staining, cells after fixation were incubated with TRITC-conjugated Phalloidin (1:1000 prepared in 1×PBS containing 0.1% TRITON-X® 100) for 10 minutes. Then, cells were washed thrice with PBS and mounted with DAPI-containing mounting medium.

ITGA11 receptor (α11β1) = molecular target: T2, ITGA11 receptor (α11β1) (Homo sapiens, UniProt Q9UKX5); assay: Binding of FITC-labeled peptides to coated ITGA11 receptor; settings: FITC-labeled peptide, 37° C. 1 hour
T2 construct: purchased R&D systems
Method: (§1) Purified ITGA11 receptor (α11β1; 100 μg/ml—stock; R&D systems) was diluted to 5 μg/ml with 1×PBS. 96-well ELISA White Maxisorb plate (Nunc) was coated with 50 μl of 5 μg/ml ITGA11 (or as control α5β1) receptor for overnight at 4° C. Then, wells were blocked for 3-4 hours with 200 μl of blocking buffer (1×PBS containing 5% BSA). Wells were washed three times with 200 μl of washing buffer (1×PBS containing 0.5% BSA and 0.05% TWEEN®-20). Peptides conjugated with FITC were diluted to different concentrations in washing buffer and then added to the plate and incubated at 37° C. for 1 hour. In addition, the binding of the peptide was blocked by co-incubation with 10× higher amount of unlabeled peptide. Subsequently, wells were washed three times with washing buffer. Then, 100 μl of 1×PBS was added and plates were read at 485 nm/520 nm with a fluorescence plate reader.

[6] = test system: primary human pancreatic stellate cells; assay: AXI-I-PEG-FITC binding assay, flow cytometry; type: cell-based; design: unit not given here; settings: suspended PSCs, 1 hour at 4° C.
Method: PSCs were trypsinized using trypsin-EDTA solution and cell numbers were diluted to 4×10^4 cells/ml. Cells were incubated at 37° C. for 30 minutes to allow receptor recovery. Then different concentrations of AXI-I-FITC was added to the cells containing 2% FBS and incubated at 4° C. for 60 minutes. Thereafter, cells were centrifuged at 1500 rpm at 4° C. for 10 minutes. Supernatant was removed and cells were washed 3 times with PBS and then were fixed with 0.5% formaldehyde for 1 hour at 4° C. and measured with flow cytometry for fluorescence.

α5β1 [7] = molecular target: T1, α5β1; assay: Binding of FITC-labeled peptide to coated control receptor α5β1; settings: similar to empty wells
Method: as §1

α11β1 receptor = α11β1 receptor (Homo sapiens, UniProt Q9UKX5); assay: Peptide microarray binding, alanine scanning and chain length scan of AXI-I; settings: receptor 10 μg/ml
Method: Peptide microarray was prepared by conjugating peptides at their N-terminal to a glass slide using a PEG linker. […] For the binding studies, the peptide array was blocked with 3% BSA in TBST for 2 hours. Then the array slide was washed 5 times in TBST and subsequently incubated with the target receptor (α11β1, 10 μg/ml dissolved in PBS) for 1 hour at 37° C. The slides were washed with TBST and then incubated with primary antibody (1 μg/ml) against ITGA11 for 1 hour at 37° C. Then slides were washed and incubated with fluorescent dye labeled secondary antibodies for 30 minutes. The slides were washed with TBST and water and then dried and scanned with a microarray scanner to detect binding of the peptides. The enlightened spots were analyzed using ImageJ software. To determine the unspecific binding, a peptide array was incubated with only primary and secondary antibodies without the receptor incubation step. Then, the signal of unspecific binding was subtracted from the total binding to calculate specific binding.

T1 sequence (P08648 42-894 limits assumed): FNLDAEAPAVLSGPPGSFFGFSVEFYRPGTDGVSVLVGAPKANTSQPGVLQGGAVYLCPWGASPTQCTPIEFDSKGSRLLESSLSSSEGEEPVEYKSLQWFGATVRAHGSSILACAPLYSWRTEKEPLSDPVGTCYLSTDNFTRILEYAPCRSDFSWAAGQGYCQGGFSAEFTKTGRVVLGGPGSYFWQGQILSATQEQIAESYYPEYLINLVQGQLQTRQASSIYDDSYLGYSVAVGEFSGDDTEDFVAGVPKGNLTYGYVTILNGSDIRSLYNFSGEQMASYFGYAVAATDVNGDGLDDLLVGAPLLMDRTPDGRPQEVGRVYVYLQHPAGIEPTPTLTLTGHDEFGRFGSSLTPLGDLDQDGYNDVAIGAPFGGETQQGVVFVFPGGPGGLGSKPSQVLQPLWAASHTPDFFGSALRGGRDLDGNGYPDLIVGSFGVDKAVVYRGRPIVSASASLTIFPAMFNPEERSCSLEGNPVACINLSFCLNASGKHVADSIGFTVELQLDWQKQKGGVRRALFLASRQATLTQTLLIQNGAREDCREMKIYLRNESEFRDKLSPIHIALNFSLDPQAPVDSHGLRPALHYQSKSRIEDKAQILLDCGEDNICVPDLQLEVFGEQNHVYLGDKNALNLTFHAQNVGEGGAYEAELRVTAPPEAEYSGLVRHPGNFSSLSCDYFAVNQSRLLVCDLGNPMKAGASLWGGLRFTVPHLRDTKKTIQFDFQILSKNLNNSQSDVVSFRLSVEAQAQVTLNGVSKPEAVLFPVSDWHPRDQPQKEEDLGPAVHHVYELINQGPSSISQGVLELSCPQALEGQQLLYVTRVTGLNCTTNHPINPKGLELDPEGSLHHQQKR
T1 sequence (P08648 895-995 limits assumed): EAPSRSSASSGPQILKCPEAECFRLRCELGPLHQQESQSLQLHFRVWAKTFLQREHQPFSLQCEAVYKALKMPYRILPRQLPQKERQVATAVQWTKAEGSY
T1 sequence (P05556 21-728 partner limits assumed): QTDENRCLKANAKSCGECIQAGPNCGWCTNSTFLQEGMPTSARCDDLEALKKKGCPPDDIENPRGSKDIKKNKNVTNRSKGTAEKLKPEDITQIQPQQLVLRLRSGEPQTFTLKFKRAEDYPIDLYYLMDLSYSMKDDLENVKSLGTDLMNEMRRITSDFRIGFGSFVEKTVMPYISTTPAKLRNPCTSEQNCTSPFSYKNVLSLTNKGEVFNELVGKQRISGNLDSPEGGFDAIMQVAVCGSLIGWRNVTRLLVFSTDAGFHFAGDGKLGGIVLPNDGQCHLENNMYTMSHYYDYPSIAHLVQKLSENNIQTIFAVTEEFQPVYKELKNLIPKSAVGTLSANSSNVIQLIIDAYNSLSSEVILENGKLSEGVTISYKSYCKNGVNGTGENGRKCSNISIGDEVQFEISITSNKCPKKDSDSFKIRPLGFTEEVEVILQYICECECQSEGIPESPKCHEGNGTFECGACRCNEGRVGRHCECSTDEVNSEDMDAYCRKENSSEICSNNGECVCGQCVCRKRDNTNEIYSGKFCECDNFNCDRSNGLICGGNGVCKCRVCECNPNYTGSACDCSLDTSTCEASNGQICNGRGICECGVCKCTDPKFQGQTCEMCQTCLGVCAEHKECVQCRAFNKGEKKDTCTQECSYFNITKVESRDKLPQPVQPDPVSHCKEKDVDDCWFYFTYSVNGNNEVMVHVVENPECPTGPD
Sequence of α11β1 receptor (Q9UKX5 23-1141 limits assumed): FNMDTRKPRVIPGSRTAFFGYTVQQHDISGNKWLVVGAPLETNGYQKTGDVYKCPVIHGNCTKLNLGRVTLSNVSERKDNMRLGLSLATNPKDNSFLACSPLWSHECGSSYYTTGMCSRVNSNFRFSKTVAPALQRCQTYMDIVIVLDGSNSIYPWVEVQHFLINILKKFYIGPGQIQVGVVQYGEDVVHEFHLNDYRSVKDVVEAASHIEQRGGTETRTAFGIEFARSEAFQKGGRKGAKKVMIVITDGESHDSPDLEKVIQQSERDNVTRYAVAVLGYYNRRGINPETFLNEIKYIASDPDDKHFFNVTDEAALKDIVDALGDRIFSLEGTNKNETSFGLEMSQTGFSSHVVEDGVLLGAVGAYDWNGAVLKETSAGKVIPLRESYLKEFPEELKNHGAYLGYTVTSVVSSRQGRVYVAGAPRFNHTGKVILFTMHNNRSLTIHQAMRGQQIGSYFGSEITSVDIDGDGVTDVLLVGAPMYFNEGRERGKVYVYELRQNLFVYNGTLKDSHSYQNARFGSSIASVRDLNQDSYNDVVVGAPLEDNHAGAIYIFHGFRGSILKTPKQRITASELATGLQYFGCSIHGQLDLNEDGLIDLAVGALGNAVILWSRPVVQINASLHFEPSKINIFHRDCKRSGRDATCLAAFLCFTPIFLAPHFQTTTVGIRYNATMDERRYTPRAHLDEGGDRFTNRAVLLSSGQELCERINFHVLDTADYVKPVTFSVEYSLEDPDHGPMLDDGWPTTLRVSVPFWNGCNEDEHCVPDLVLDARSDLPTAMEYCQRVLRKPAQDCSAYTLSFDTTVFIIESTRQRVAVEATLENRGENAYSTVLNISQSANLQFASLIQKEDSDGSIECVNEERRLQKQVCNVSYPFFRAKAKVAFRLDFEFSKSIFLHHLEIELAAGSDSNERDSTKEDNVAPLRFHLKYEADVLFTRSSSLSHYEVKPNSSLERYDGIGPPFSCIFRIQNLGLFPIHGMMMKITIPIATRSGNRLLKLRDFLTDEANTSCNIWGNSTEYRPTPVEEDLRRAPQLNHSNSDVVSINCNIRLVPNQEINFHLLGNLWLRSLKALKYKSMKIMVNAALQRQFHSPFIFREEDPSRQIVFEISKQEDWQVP
Sequence of α11β1 receptor (P05556 21-728 partner limits assumed): as the sequence (P05556 21-728 partner limits assumed) above
T2 sequence (Q9UKX5 23-1141 limits assumed): as the sequence (Q9UKX5 23-1141 limits assumed) above
T2 sequence (P05556 21-728 partner limits assumed): as the sequence (P05556 21-728 partner limits assumed) above

## RYYRITYC (integrin binding peptide) [AV3-cys]
[1]
  expression of fibrotic markers α-SMA, Col-1a1 and vimentin: clearly inhibited the expression of these biomarkers
[2]
  migration of fibroblasts (wound closure): significantly inhibited the migration of fibroblasts

## SIELTNLLVRYS [Seq 6]
α5β1 [3]
  binding to the α5β1 receptor (signal strength): SIELTNLLVRYS-moderate

## TTVRYYRITYGE (integrin binding peptide) [Seq 3]
α5β1 [3]
  binding to the α5β1 receptor (signal strength): TTVRYYRITYGE-strong

## YYRITYGETGGN (ITGA5 binding peptide) [nAV2]
α5β1 [3]
  binding to the α5β1 receptor (signal strength): YYRITYGETGGN-very strong
α5β1 [4]
  binding to the coated α5β1 receptor: good binding
α5β1 [4]; excess (10-fold) of unlabeled peptide
  blocking of nAV2-PEG-fluorescein binding to coated α5β1 by excess unlabeled peptide: blocked

## YYRITYGETGGN (SEQ ID NO:56)-K-PEG(6)-Fluorescein (YYRITYGETGGNK-{PEG(6)-Fluorescein}) [nAV2-FITC]
[5]
  binding to LX2 hepatic stellate cells: clearly bound to these cells

## TNLLVRYSPVKN [Seq 7]
α5β1 [3]
  binding to the α5β1 receptor (signal strength): TNLLVRYSPVKN-moderate

## VALNGREESPLL [Seq 2]
α5β1 [3]
  binding to the α5β1 receptor (signal strength): VALNGREESPLL-very weak

## ITANSFTVHWIA [Seq 1]
α5β1 [3]
  binding to the α5β1 receptor (signal strength): ITANSFTVHWIA-weak

## AXI-I-FITC: AXI-I peptide labeled with PEG(6)-FITC (SGLTEWLRWFNS; also: labeled with PEG(6)-FITC, site not given here)
ITGA11 receptor (α11β1)
  binding to coated ITGA11 (α11β1) receptor: bound to the ITGA11 receptor specifically
[6]
  concentration at which binding reached plateau: 20
α5β1 [7]
  binding to irrelevant receptor α5β1: very low binding

## LTEWLRWF (ITGA11 binding peptide)
α11β1 receptor
  binding to the α11β1 receptor on peptide microarray: strongest binding

## GDSPASSKPISI [Seq 5]
α5β1 [3]
  binding to the α5β1 receptor (signal strength): GDSPASSKPISI-moderate

## AV3.3: AV3 variant of FIG. 15 Panel B; possibly third listed peptide, SEQ ID NO:62 (RAYRITY; ITGA5 binding peptide)
[2]
  reduction on migration: about 30%

## SFATWTPNFERN (integrin binding peptide) [AXI-II]
[5]
  binding to LX2 hepatic stellate cells: bound to the stellate cells

## YYRITYGETGGN: YYRITYGETGGN with PEG(6)-Fluorescein introduced at the N-terminal side of the peptide (not fully specified (N-terminus))
α5β1 [4]
  binding to the coated α5β1 receptor: no binding was observed
